Reference: patent US20080213817A1, “Enhancement of Th2-Dependent and Inflammatory Response” (priority 2004, published 2008)

System: WT thymocytes
Test: Thymocyte proliferation, [3H] thymidine incorporation
Format: cell-based, mice
Settings: anti-CD3 or anti-CD3+anti-CD28, 72 hrs, increasing amounts of IL-4
Method: For proliferation assays, purified thymocytes or CD4^+ or CD8^+ splenic T cells (2×10^5 cells/well) were cultured in round bottom 96-well plates (Costar) precoated with anti-CD3 antibody (BD Pharmingen) in the absence or presence of soluble anti-CD28 antibody (BD Pharmingen). After 3 days, cultures were pulsed for 6 hrs with 1 μCi [^3H] thymidine (New England Nuclear) per well and cells were harvested. [^3H] thymidine incorporation was measured by scintillation counting. When indicated, either recombinant IL-4 or neutralizing anti-IL-4 antibody (R&D Systems) were added prior to [^3H] thymidine labeling.
For proliferation assays, purified thymocytes (2×10^5 cells/well) were cultured in round bottom 96-well plates (Costar) precoated with anti-CD3 antibody (BD Pharmingen) in the absence or presence of soluble anti-CD28 antibody (BD Pharmingen). […] [^3H] thymidine incorporation was measured by scintillation counting. […]
The effect of the Mekk1^KD mutation on activation of JNK and other MAPKs in response to TCR and CD28 engagement was investigated. • A. WT and Mekk1^KD thymocytes were incubated with anti-CD3 (10 μg/ml) and anti-CD28 (1 μg/ml). At the indicated times, JNK activity was measured by an immunecomplex kinase assay using GST-c-Jun(1-79) as the substrate. Phosphorylated c-Jun was detected by autoradiography and quantitated using a PhosphorImager. […] Cell proliferation was measured as above. […]

B1: IL-4: recombinant IL-4 (R&D Systems), added exogenously (protein, UniProt P05112 25-153, looked up)
Interleukin-4: HKCDITLQEIIKTLNSLTEQKTLCTELTVTDIFAASKNTTEKETFCRAATVLRQFYSHHEKDTRCLGATAQQFHRHKQLIRFLKRLDRNLWGLAGLNSCPVKEANQSTLENFLERLKTIMREKYSKCSS
With B1 as the molecule, how does the “proliferative response of WT thymocytes on addition of exogenous IL-4” value read?
The value was “strongly potentiated”.
